Experimental data reported in EP3574020B1.
Each block holds one binder with its values, some of them ahead of it.

What was measured:
[1] = target: A-beta42 Oligomer (synthetic) (human); experiment: SPR direct binding; hybridoma supernatant over immobilized A-beta42 oligomer
A-beta42 Monomer (human) [2] = experiment: SPR direct binding; hybridoma supernatant over immobilized A-beta42 monomer
[3] = target: T1, linear CGHHQKG peptide, conjugated to BSA; experiment: SPR direct binding; hybridoma supernatant over immobilized BSA-conjugated peptide
T1 sequence (peptide, conjugated to BSA): CGHHQKG

[4] = target: T2, cyclo(CGHHQKG) cyclic peptide, conjugated to BSA; experiment: as above
T2 sequence (peptide, cyclized peptide, cyclo(CGHHQKG); conjugated to BSA): CGHHQKG

A-beta42 Monomer (human) [5] = experiment: SPR; purified antibody immobilized, A-beta injected
[6] = target: A-beta42 Oligomer (synthetic) (human); experiment: as above
[7] = target: commercially-prepared stable A-beta42 Oligomers (SynAging) (human); experiment: SPR; antibody covalently immobilized, stable A-beta42 oligomers at 1 microM
Sequence of commercially-prepared stable A-beta42 Oligomers (SynAging) (human) (peptide, as listed by the source): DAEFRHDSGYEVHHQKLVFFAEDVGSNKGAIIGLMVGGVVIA

[8] = target: T2, cyclo(CGHHQKG) cyclic peptide, conjugated to BSA; experiment: MAAS-2 SPR; antibody immobilized, cyclopeptide-BSA at pH 6.5, 7.5 or 8.0
[9] = target: A-beta oligomers in the low molecular weight (LMW, ~8-70 kDa) fraction of soluble human AD brain extract (human) (UniProt P05067); experiment: SPR; antibody immobilized, SEC fraction at 100ug/ml
Sequence of A-beta oligomers in the low molecular weight (LMW, ~8-70 kDa) fraction of soluble human AD brain extract (human) (P05067 672-713): as the sequence (peptide, as listed by the source) above

Sequence of A-beta42 Oligomer (synthetic) (human) (peptide, as listed by the source): as above
Sequence of A-beta42 Monomer (human) (peptide, as listed by the source): as above

B1: 301-11 mouse monoclonal antibody (IgG3, kappa) (antibody, V domains shown)
VH: EVQLVESGGGLVKPGGSLKLSCAASGFTFSDYYMYWVRQTPEKRLEWVATISDGGSYTSYPDSVKGRFTISRDNAKNNLYLQMSSLRSEDTAMYYCARDYYGSSSYTSGFAYWGQGTLVTVSA
VL: DIVMSQSPSSLAVSTGEKVTMSCKSSQSLLNSRTRKNYLAWYQQKPGQSPKLLIYWASTRESGVPDRFTGSGSGTDFTLTISSVQAEDLAVYYCKQSYNLYTFGGGTKLEIK
RU [1]: 75.3 RU
RU (A-beta42 Monomer (human) [2]): 21.6 RU
RU [3]: 210 RU
RU [4]: 488 RU
RU (A-beta42 Monomer (human) [5]): -14.1 RU
RU [6]: -2.8 RU
binding response units (BRU), average [7]: 19.3 BRU

B4: 301-17 mouse monoclonal antibody, hybridoma-purified IgG3 (antibody, V domains shown)
VH: QVQLQQPGAELVKPGASVKMSCKASGYSFTSYWINWVKQRPGQGLEWIGDVHPGRGVSTYNAKFKSKATLTLDTSSSTAYMQLSSLTSEDSAVYYCSRSHGNTYWFFDVWGAGTTVTVSSATTTAPS
VL: DVLMTQTPLSLPVSLGDQASISCRSSQSIVHSNGNTYLEWYLQKPGQSPKLLIYKVSNRFSGVPDRFSGSGSGTDFTLKISRVEAEDLGVYYCFQGSHVPFTFGSGTKLEIKRADA
RU [6]: 148 RU

Other lines, results leading:

BRU [8]: 400 BRU
B2: Recombinant 301-17 IgG1 (murine IgG1 backbone) (antibody, V domains shown)
VH: QVQLQQPGAELVKPGASVKMSCKASGYSFTSYWINWVKQRPGQGLEWIGDVHPGRGVSTYNAKFKSKATLTLDTSSSTAYMQLSSLTSEDSAVYYCSRSHGNTYWFFDVWGAGTTVTVSS
VL: DVLMTQTPLSLPVSLGDQASISCRSSQSIVHSNGNTYLEWYLQKPGQSPKLLIYKVSNRFSGVPDRFSGSGSGTDFTLKISRVEAEDLGVYYCFQGSHVPFTFGSGTKLEIKR

fold binding response against aducanumab [9]: 1.5 to 2 fold
B3: Humanized antibody of 301-17 (VH2 Vk5), human IgG4 (S241P hinge variant) / kappa (antibody, V domains shown)
VH: QVQLVQSGAEVKKPGASVKMSCKASGYSFTSYWINWVKQRPGQGLEWIGDVHPGRGVSTYNAKFKSRATLTLDTSISTAYMELSSLRSEDTAVYYCSRSHGNTYWFFDVWGQGTTVTVSS
VL: DVLMTQSPLSLPVTLGQPASISCRSSQSIVHSNGNTYLEWYQQRPGQSPRLLIYKVSNRFSGVPDRFSGSGSGTDFTLKISRVEAEDVGVYYCFQGSHVPFTFGQGTKLEIKR
